# Laboratory results published in article PMC3942315, “Structural Insights Into DNA Repair by RNase T—An Exonuclease Processing 3′ End of Structured DNA in Repair Pathways” (PLoS Biology, 2014).
# T1: RNase T (Escherichia coli (JM109 or K-12), UniProt P30014 1-215)
# T1 sequence: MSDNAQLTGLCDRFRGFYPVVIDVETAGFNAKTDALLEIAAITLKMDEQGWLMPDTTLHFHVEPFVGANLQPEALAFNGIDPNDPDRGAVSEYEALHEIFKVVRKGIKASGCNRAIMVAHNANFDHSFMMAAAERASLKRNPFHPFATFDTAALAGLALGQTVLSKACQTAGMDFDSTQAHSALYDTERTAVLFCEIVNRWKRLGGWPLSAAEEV
# Columns and labels:
# [1] = target: T1, RNase T; assay: EMSA; 30 mM EDTA, 10 mM EGTA; EMSA: 20 nM DNA, 0/5/50 uM protein, 100 mM NaCl, 30 mM EDTA, 10 mM EGTA, 50 mM Tris-HCl pH 7.0, 20 min, room temperature; conditions: protein: recombinant, tags: N-terminal His (pET-28a), chain copies: 2, label: 5'-32P, hairpin
# [2] = target: T1, RNase T; assay: X-ray crystallography; 2 Mg2+ in active site; one DNA per protomer; 1.9 A; EMSA: 20 nM DNA, 0/5/50 uM protein, 100 mM NaCl, 30 mM EDTA, 10 mM EGTA, 50 mM Tris-HCl pH 7.0, 20 min, room temperature; conditions: protein: recombinant; tags: N-terminal His (pET-28a); chain copies: 2; Y structure (5' and 3' unpaired tails)
# [3] = target: the molecule itself; assay: dynamic light scattering; purified recombinant proteins in solution; conditions not given
binder,measurement,setting,value
"GGCCCTCTTTAGGGCCTTAA (structured_DNA) [Stem-loop duplex DNA, 4-nt 3' overhang]",binding result,[1]; 3' overhang 4 nt,binds
"TTGGCCCTCTTTAGGGCCCC (structured_DNA) [Y-structured DNA, 3'-CC (crystal)]",binding result,[2],binds
"RNase T (enzyme, E. coli, UniProt P30014 1-215, looked up, RNase T (rnt gene) of E. coli, full-length gene amplified from genomic DNA of JM109 or K-12 strains, cloned into NdeI/XhoI sites of pET-28a; Wild-type RNase T was used for crystallisation; also called rnt; DnaQ-like exonuclease RNase T; source: E. coli BL21-CodonPlus(DE3)-RIPL, purified (HiTrap TALON, HiTrap Heparin, Superdex 75)) MSDNAQLTGLCDRFRGFYPVVIDVETAGFNAKTDALLEIAAITLKMDEQGWLMPDTTLHFHVEPFVGANLQPEALAFNGIDPNDPDRGAVSEYEALHEIFKVVRKGIKASGCNRAIMVAHNANFDHSFMMAAAERASLKRNPFHPFATFDTAALAGLALGQTVLSKACQTAGMDFDSTQAHSALYDTERTAVLFCEIVNRWKRLGGWPLSAAEEV",stoichiometry N,[3],2
"GGCCCTCTTTAGGGCCAAGGGTTTAA (structured_DNA) [Stem-loop duplex DNA, 10-nt 3' overhang]",binding result,[1]; 3' overhang 10 nt,binds
"GGCCCTCTTTAGGGCCTTATAA (structured_DNA) [Stem-loop duplex DNA, 6-nt 3' overhang]",binding result,[1]; 3' overhang 6 nt,binds
